Data: patent US20250352659A1, “SELF-STABILIZING LINKER CONJUGATES” (priority 2023, published 2025)
Read-outs that look alike come from different tables or passages of the source.

Key:
[1] = Conjugator-antibody conjugate maleimide hydrolysis (ring opening) kinetics by reduced LCMS; format: physicochemical
Method: After the conjugation step, the ADC (or conjugator-antibody conjugate) was subjected to buffer exchange into ring opening buffer (pH 6.5˜9.0, PBS, borate or tris buffer) and the solution was left at 22 or 37° C. for 1˜48 h. The maleimide ring opening process was monitored via reduced LCMS. Once the conjugated maleimide hydrolysis was completed, the resulting ADCs were buffer exchanged into basic tris pH 8.0-8.5 buffer or acidic histidine-acetate pH 5.0-6.5 buffer via dialysis.
LCMS method to monitor and determine maleimide hydrolysis. LC-MS analysis was carried out under the following measurement conditions: • LC-MS system: Vanquish Flex UHPLC and Orbitrap Exploris 240 Mass Spectrometer • Column: MAbPac™ RP, 2.1*50 mm, 4 μm, 1,500 Å, Thermo Scientific™ • Column temperature: 80° C. • Mobile phase A: 0.1% formic acid (FA) aqueous solution • Mobile phase B: Acetonitrile solution containing 0.1% formic acid (FA) • Gradient program 1: 25% B-25% B (0 min-2 min), 25% B-50% B (2 min-18 min), 50% B-90% B (18 min-18.1 min), 90% B-90% B (18.1 min-20 min), 90% B-25% B (20 min-20.1 min), 25% B-25% B (20.1 min-25 min) • Gradient program 2 • Injected sample amount: 2 μg • MS parameters: Intact and denaturing MS data were acquired in HMR mode at setting of R=15k and deconvolved using the ReSpect™ algorithm and Sliding Window integration in Thermo Scientific™ BioPharma Finder™ 4.0 software.
Results for ring opening times measured by the LCMS method described above for monitoring ring hydrolysis are presented in Table 3 as RO T1/2 (h) (i.e., the time, in hours, for 50% of the maleimide rings to open).
Conjugator-antibody conjugate maleimide hydrolysis (ring opening) kinetics are presented in FIGS. 1A-1L, Table 3 (for pH 7.0 reaction conditions, hydrolysis T1/2), and Table 5. The data in Table 5 was generated by the LCMS method described above and includes the time, in hours, for the maleimide ring to open in more than 95% of the conjugators, after antibody conjugation (“RO Completed Time (>95%) (h)”). The results for conjugator-antibody conjugate 3-1 indicate that after 24 hours, about 0% of maleimide rings were open; the results for conjugator-antibody conjugate 3-3 indicate that after 24 hours, about 28% of maleimide rings were open.

[2] = as above; format: physicochemical; details: pH 7, time point 96 h
[3] = Conjugator-antibody conjugate stability in formulation buffer (pH 5.5 20 mM histidine buffer); format: physicochemical; details: pH 5.5, 22 °C
Method: After the conjugation and hydrolysis steps described above (see “DAR8 antibody drug conjugate/conjugator-antibody conjugate preparation”), conjugator-antibody conjugates were incubated in formulation buffer (pH 5.5 20 mM histidine buffer) or glutathione (GSH) buffer (pH 7.4 or 8.0), […] Hydrolysis status was monitored via reduced LCMS. Results are presented in Table 6, Table 7, and FIGS. 2A-23B.

[4] = Conjugator-antibody conjugate stability in pH 7.4 and 8.0 buffer with and without GSH; format: physicochemical; details: incubation 20 h;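 further: conjugate hydrolysis tracked by LC-MS analysis of reduced samples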
B7H3 [5] = target: T1, B7H3 (human, UniProt Q5ZPR3 29-534); assay: cell-based or functional assay
T1 sequence (looked up): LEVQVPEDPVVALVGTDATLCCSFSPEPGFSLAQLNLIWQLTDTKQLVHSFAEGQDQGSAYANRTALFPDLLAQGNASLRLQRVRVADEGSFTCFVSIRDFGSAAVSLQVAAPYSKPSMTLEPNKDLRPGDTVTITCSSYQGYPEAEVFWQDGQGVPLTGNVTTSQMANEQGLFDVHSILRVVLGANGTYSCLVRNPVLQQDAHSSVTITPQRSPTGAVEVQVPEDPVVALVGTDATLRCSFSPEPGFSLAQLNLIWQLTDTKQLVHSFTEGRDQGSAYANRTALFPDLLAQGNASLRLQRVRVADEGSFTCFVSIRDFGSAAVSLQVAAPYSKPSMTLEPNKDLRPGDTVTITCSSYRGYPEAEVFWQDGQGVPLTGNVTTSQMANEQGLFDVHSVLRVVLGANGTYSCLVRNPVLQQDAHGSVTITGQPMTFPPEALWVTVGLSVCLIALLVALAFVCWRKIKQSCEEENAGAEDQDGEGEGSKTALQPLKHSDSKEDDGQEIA

B7H3 [6] = target: T1, B7H3; assay: cell-based or functional assay; remark: listed apart in the source

CN(C)C(=O)CCNC(=O)OCC(CCN)N1C(=O)C=CC1=O (centres unmarked) [3-11]
half-life ([1]; buffer, pH 7.0, time for 50% of the maleimide rings to open, read-out: RO T1/2 (converted)): 14 h
MS DAR ([1]; pH 7, time point 1 h): 8
RO (%) HC ([1]; pH 7, time point 1 h): 3.41%
RO (%) LC ([1]; pH 7, time point 1 h): 1.97%
RO (%) Total ([1]; pH 7, time point 1 h): 3.05%
MS DAR ([1]; pH 7, time point 3 h): 8
RO (%) HC ([1]; pH 7, time point 3 h): 12.32%
RO (%) LC ([1]; pH 7, time point 3 h): 6.37%
RO (%) Total ([1]; pH 7, time point 3 h): 10.83%
MS DAR ([1]; pH 7, time point 5 h): 8
RO (%) HC ([1]; pH 7, time point 5 h): 31.72%
RO (%) LC ([1]; pH 7, time point 5 h): 10.15%
RO (%) Total ([1]; pH 7, time point 5 h): 26.33%
MS DAR ([1]; pH 7, time point 7 h): 8
RO (%) HC ([1]; pH 7, time point 7 h): 33.03%
RO (%) LC ([1]; pH 7, time point 7 h): 14.6%
RO (%) Total ([1]; pH 7, time point 7 h): 28.42%
MS DAR ([1]; pH 7, time point 24 h): 8
RO (%) HC ([1]; pH 7, time point 24 h): 84.46%
RO (%) LC ([1]; pH 7, time point 24 h): 68.64%
RO (%) Total ([1]; pH 7, time point 24 h): 80.51%
MS DAR ([1]; pH 7, time point 96 h): 8
RO (%) HC ([1]; pH 7, time point 96 h): 96.94%
RO (%) LC ([1]; pH 7, time point 96 h): 89.26%
RO Completed Time (>95%) ([1]; pH 7, time for the maleimide ring to open in more than 95% of the conjugators): 96 h
RO (%) Total [2]: 95.02%
MS DAR-T = 168 h ([3]; incubation 168 h): 8.00
Maleimide ring opening ratio (%) at T = 168 h ([3]; incubation 168 h): 96.99%
MS DAR-T = 0 h [3]: 8.02
MS DAR ([4]; pH 7.4, 22 °C): 8.00
MS DAR ([4]; pH 7.4, 37 °C): 8.00
MS DAR ([4]; pH 8.0, 22 °C): 8.00

B1: ADC4-B (antibody, human IgG1, kappa, V domains shown)
VH: QVQLVQSGAEVKKPGSSVKVSCKASGYTFTNYVMHWVRQAPGQGLEWMGYINPYNDDVKYNEKFKGRVTITADESTSTAYMELSSLRSEDTAVYYCARWGYYGSPLYYFDYWGQGTLVTVSS
VL: EIVLTQSPATLSLSPGERATLSCRASSRLIYMHWYQQKPGQAPRPLIYATSNLASGIPARFSGSGSGTDFTLTISSLEPEDFAVYYCQQWNSNPPTFGQGTKVEIKR
modifications: conjugator-linker-payload on cysteine thiols after TCEP reduction (DAR8); residues not numbered; structure given only as a drawing
EC50 (nM), ADC direct killing, Capan-1 (Low), 3D (B7H3 [5]): 0.5 nM
EC50 (nM), ADC direct killing, NCI-H1650 (High), 3D (B7H3 [5]): 3.9 nM
Emax (%), ADC direct killing, Capan-1 (Low), 3D (B7H3 [5]): 84.9%
Emax (%), ADC direct killing, NCI-H1650 (High), 3D (B7H3 [5]): 75.3%
EC50 (nM), ADC direct killing, Capan-1 (Low), 3D (B7H3 [6]): 1.1 nM
EC50 (nM), ADC direct killing, NCI-H1650 (High), 3D (B7H3 [6]): 4.5 nM
Emax (%), ADC direct killing, Capan-1 (Low), 3D (B7H3 [6]): 74.3%
Emax (%), ADC direct killing, NCI-H1650 (High), 3D (B7H3 [6]): 66.5%

B2: ADC4-14 (antibody, human IgG1, kappa, V domains shown)
VH: B1 VH
VL: B1 VL
modifications: conjugator-linker-payload on cysteine thiols after TCEP reduction (DAR8), maleimide hydrolysed; residues not numbered; structure given only as a drawing
EC50 (nM), ADC direct killing, Capan-1 (Low), 3D (B7H3 [6]): 0.4 nM
EC50 (nM), ADC direct killing, NCI-H1650 (High), 3D (B7H3 [6]): 1.3 nM
Emax (%), ADC direct killing, Capan-1 (Low), 3D (B7H3 [6]): 61.3%
Emax (%), ADC direct killing, NCI-H1650 (High), 3D (B7H3 [6]): 81.6%

B3: ADC4-10 (antibody, human IgG1, kappa, V domains shown)
VH: B1 VH
VL: B1 VL
modifications: conjugator-linker-payload on cysteine thiols after TCEP reduction (DAR8), maleimide hydrolysed; residues not numbered; structure given only as a drawing
EC50 (nM), ADC direct killing, Capan-1 (Low), 3D (B7H3 [5]): 0.6 nM
EC50 (nM), ADC direct killing, NCI-H1650 (High), 3D (B7H3 [5]): 1.7 nM
Emax (%), ADC direct killing, Capan-1 (Low), 3D (B7H3 [5]): 68.4%
Emax (%), ADC direct killing, NCI-H1650 (High), 3D (B7H3 [5]): 80%

B4: ADC4-11 (antibody, human IgG1, kappa, V domains shown)
VH: B1 VH
VL: B1 VL
modifications: conjugator-linker-payload on cysteine thiols after TCEP reduction (DAR8), maleimide hydrolysed; residues not numbered; structure given only as a drawing
EC50 (nM), ADC direct killing, Capan-1 (Low), 3D (B7H3 [6]): 1 nM
EC50 (nM), ADC direct killing, NCI-H1650 (High), 3D (B7H3 [6]): 2.1 nM
Emax (%), ADC direct killing, Capan-1 (Low), 3D (B7H3 [6]): 62.4%
Emax (%), ADC direct killing, NCI-H1650 (High), 3D (B7H3 [6]): 85.6%

B5: ADC4-13 (antibody, human IgG1, kappa, V domains shown)
VH: B1 VH
VL: B1 VL
modifications: conjugator-linker-payload on cysteine thiols after TCEP reduction (DAR8), maleimide hydrolysed; residues not numbered; structure given only as a drawing
EC50 (nM), ADC direct killing, Capan-1 (Low), 3D (B7H3 [6]): 0.5 nM
EC50 (nM), ADC direct killing, NCI-H1650 (High), 3D (B7H3 [6]): 1.6 nM
Emax (%), ADC direct killing, Capan-1 (Low), 3D (B7H3 [6]): 58.5%
Emax (%), ADC direct killing, NCI-H1650 (High), 3D (B7H3 [6]): 79.3%

B6: ADC4-9 (antibody, human IgG1, kappa, V domains shown)
VH: B1 VH
VL: B1 VL
modifications: conjugator-linker-payload on cysteine thiols after TCEP reduction (DAR8), maleimide hydrolysed; residues not numbered; structure given only as a drawing
EC50 (nM), ADC direct killing, Capan-1 (Low), 3D (B7H3 [5]): 0.8 nM
EC50 (nM), ADC direct killing, NCI-H1650 (High), 3D (B7H3 [5]): 2.8 nM
Emax (%), ADC direct killing, Capan-1 (Low), 3D (B7H3 [5]): 78.8%
Emax (%), ADC direct killing, NCI-H1650 (High), 3D (B7H3 [5]): 81.4%

B7: ADC4-12 (antibody, human IgG1, kappa, V domains shown)
VH: B1 VH
VL: B1 VL
modifications: conjugator-linker-payload on cysteine thiols after TCEP reduction (DAR8), maleimide hydrolysed; residues not numbered; structure given only as a drawing
EC50 (nM), ADC direct killing, NCI-H1650 (High), 3D (B7H3 [6]): 2.3 nM
Emax (%), ADC direct killing, Capan-1 (Low), 3D (B7H3 [6]): 61.9%
Emax (%), ADC direct killing, NCI-H1650 (High), 3D (B7H3 [6]): 83.2%

B8: ADC4-8 (antibody, human IgG1, kappa, V domains shown)
VH: B1 VH
VL: B1 VL
modifications: conjugator-linker-payload on cysteine thiols after TCEP reduction (DAR8), maleimide hydrolysed; residues not numbered; structure given only as a drawing
EC50 (nM), ADC direct killing, Capan-1 (Low), 3D (B7H3 [5]): 1 nM
EC50 (nM), ADC direct killing, NCI-H1650 (High), 3D (B7H3 [5]): 2.9 nM
Emax (%), ADC direct killing, Capan-1 (Low), 3D (B7H3 [5]): 66.6%
Emax (%), ADC direct killing, NCI-H1650 (High), 3D (B7H3 [5]): 79.5%

B9: ADC4-16 (antibody, human IgG1, kappa, V domains shown)
VH: B1 VH
VL: B1 VL
modifications: conjugator-linker-payload on cysteine thiols after TCEP reduction (DAR8), maleimide hydrolysed; residues not numbered; structure given only as a drawing
EC50 (nM), ADC direct killing, Capan-1 (Low), 3D (B7H3 [6]): 0.6 nM
EC50 (nM), ADC direct killing, NCI-H1650 (High), 3D (B7H3 [6]): 1.5 nM
Emax (%), ADC direct killing, Capan-1 (Low), 3D (B7H3 [6]): 62.2%
Emax (%), ADC direct killing, NCI-H1650 (High), 3D (B7H3 [6]): 76.4%
